Measurements taken from patent publication US20110318808.

Experiments:
[1] = molecular target: T1, fluorophore/quencher substrate peptide DABCYL-YGENVTFQGSK-EDANS
T1 chain: YGENVTFQGSK

[2] = molecular target: T2, fusion substrate protein with the ENVTFQG consensus recognition sequence
T2 chain: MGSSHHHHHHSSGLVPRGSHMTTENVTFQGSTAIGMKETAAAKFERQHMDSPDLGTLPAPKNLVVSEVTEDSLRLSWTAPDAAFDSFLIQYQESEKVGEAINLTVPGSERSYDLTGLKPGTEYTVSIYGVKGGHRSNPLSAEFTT

[3] = molecular target: T3, fusion substrate protein with the PVA NIa protease consensus sequence with a P2' proline (ENVTFQGP)
T3 chain: ENVTFQGP

[4] = molecular target: T4, fusion substrate protein with the TEV NIa protease recognition sequence (ENLYGQGS)
T4 chain: ENLYGQGS

[5] = molecular target: T5, fusion substrate protein with the TVMV NIa protease recognition sequence (ETVRFQGS)
T5 chain: ETVRFQGS

[6] = molecular target: T6, synthetic peptide SEAVYTQGSS (NIa/NIb junction recognition sequence EAVYTQG)
T6 chain: SEAVYTQGSS

[7] = molecular target: T7, synthetic peptide SEMVTNQSSS (recognition sequence EMVTNQS)
T7 chain: SEMVTNQSSS

[8] = molecular target: T8, synthetic peptide SENVTFQGSS (consensus recognition sequence ENVTFQG)
T8 chain: SENVTFQGSS

[9] = molecular target: T9, synthetic peptide SENVTKQLSS (recognition sequence ENVTKQL)
T9 chain: SENVTKQLSS

[10] = molecular target: T10, synthetic peptide SEVVLFQASS (P3/6K1 junction recognition sequence EVVLFQA)
T10 chain: SEVVLFQASS

B1: potato virus A (PVA) NIa protease, wild type (protein)
chain: STSMFRGVRDYNPISSVICQLENESEGRTTQLFGLGFGPFIITNQHLFVRNNGSLTVRSQMGVFKVNSTVTLQMRPVEGRDVLIIKMPKDFPPFPQRLKFRQPTHSEKVCLILTNFQQKSSSSMVSETSHIIPKENTYFWKHWISTKEGHCGSPIVSTTDGAILGIHSLSNMTNTSNYFACFPKGFTETYLATESAHEWVKGWKFNASNVCWGSFHLQDSKPTKEFKTVKLV
- Km (uM), DTT + [1]: 178 µM
- Relative Kcat/Km, DTT + [1]: 100
- Vmax (RFU/min), DTT + [1]: 78500 RFU/min
- proteolytic cleavage of the substrate monitored by SDS-PAGE [2]: cleaved the substrate to completion
- Cleaved by NIa (fusion substrate protein) [3]: No
- Cleaved by NIa (fusion substrate protein) [4]: No
- Cleaved by NIa (fusion substrate protein) [5]: Yes
- rate of cleavage of fusion substrate [5]: able to cleave the fusion substrate with the TVMV NIa protease recognition sequence, although at a much lower rate than the PVA NIa protease consensus sequence
- Cleaved by NIa (synthetic peptide, RP-HPLC and LC-MS) [6]: Yes
- Cleaved by NIa (synthetic peptide, RP-HPLC and LC-MS) [7]: No
- Cleaved by NIa (synthetic peptide, RP-HPLC and LC-MS) [8]: Yes
- Cleaved by NIa (synthetic peptide, RP-HPLC and LC-MS) [9]: No
- Cleaved by NIa (synthetic peptide, RP-HPLC and LC-MS) [10]: Yes
